# Measured values as given in patent US20180194839A1 (Novartis, published 2018).
# Where a chain is given by its changes, count along the chain named. In names and notes the source's numbering stands.
# T1: recombinant human IL-17A (SEQ ID NO: 78) (human, UniProt Q16552 24-155, limits assumed)
# T1 construct: homodimer; also called huIL-17A; hulL-17A
# T1 sequence: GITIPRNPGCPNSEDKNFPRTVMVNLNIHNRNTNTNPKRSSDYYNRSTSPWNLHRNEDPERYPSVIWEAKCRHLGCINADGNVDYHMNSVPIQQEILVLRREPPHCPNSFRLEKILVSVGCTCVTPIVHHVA
# T2: recombinant human IL-17A (SEQ ID NO: 76) (human, UniProt Q16552 24-155, limits assumed)
# T2 sequence: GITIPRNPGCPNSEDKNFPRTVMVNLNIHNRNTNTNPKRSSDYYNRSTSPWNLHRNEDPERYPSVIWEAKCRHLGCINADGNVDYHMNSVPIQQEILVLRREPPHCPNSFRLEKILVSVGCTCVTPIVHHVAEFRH
# T3: human IL-17A (construct not stated) (human, UniProt Q16552 24-155, limits assumed)
# T3 construct: also called huIL-17A; human IL-17A biotin
# T3 sequence: T2 sequence
# T4: recombinant mouse IL-17A (SEQ ID NO: 83) (mouse, UniProt Q62386 26-158)
# T4 sequence: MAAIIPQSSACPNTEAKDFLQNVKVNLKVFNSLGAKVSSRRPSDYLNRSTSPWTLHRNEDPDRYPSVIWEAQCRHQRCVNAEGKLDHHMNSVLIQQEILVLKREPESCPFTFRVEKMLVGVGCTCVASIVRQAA
# B1: XAB2 (antibody, human IgG1, kappa, V domains shown)
# VH: EVQLVESGGDLVQPGGSLRLSCAASGFTFSSYWMSWVRQAPGKGLEWVANIKQDGSEKYYVDSVKGRFTISRDNAKNSLYLQMNSLRAEDTAVYYCARDRGSLYYWGQGTLVTVSS
# VL: AIQLTQSPSSLSASVGDRVTITCRPSQVIISALAWYQQKPGKAPKLLIYDASSLEQGVPSRFSGSVSGTDFTLTISSLQPEDFATYYCQQFDSYPLTFGGGTKVEIKR
# B2: XAB5 (antibody, human IgG1, kappa, V domains shown)
# VH: B1 VH
# VL: B1 VL with V28G, I30N, S31W, A32E, Q56N, V66G, D92N
# B3: MB435 (Fab, V domains shown)
# VH: B1 VH
# VL: AIQLTQSPSSLSASVGDRVTITCRPSQGINWELAWYQQKPGKAPKLLIYDASSLENGVPSRFSGSGSGTDFTLTISSLQPEDFATYYCQQFNSYPLTFGGGTKVEIK
# notes: heavy chain C-terminal Flag tag
# B4: MB440 (Fab, V domains shown)
# VH: B1 VH
# VL: B3 VL with N30L, E32Q
# notes: as for B3
# B5: MB444 (Fab, V domains shown)
# VH: B1 VH
# VL: B3 VL with N30L
# notes: as for B3
# B6: MB463 (Fab, V domains shown)
# VH: B1 VH
# VL: B3 VL with N30Y, W31F
# notes: as for B3
# B7: MB464 (Fab, V domains shown)
# VH: B1 VH
# VL: B3 VL with N30I, W31Y, E32Q
# notes: 30 stays I); heavy chain C-terminal Flag tag
# B8: MB468 (Fab, V domains shown)
# VH: B1 VH
# VL: B3 VL with N30Y
# notes: heavy chain C-terminal Flag tag; with N56Q formatted to IgG as XAB3
# B9: MB454 (Fab, V domains shown)
# VH: B1 VH
# VL: B3 VL with N30L, E32A
# notes: 32 stays A); heavy chain C-terminal Flag tag
# B10: MB432 (Fab, V domains shown)
# VH: B1 VH
# VL: B3 VL with N30L, W31F, E32A
# notes: as for B9
# B11: MB433 (Fab, V domains shown)
# VH: B1 VH
# VL: B3 VL with N30Y, E32G
# notes: as for B3
# B12: MB434 (Fab, V domains shown)
# VH: B1 VH
# VL: B3 VL with N30W, E32Y
# notes: as for B3
# B13: MB438 (Fab, V domains shown)
# VH: B1 VH
# VL: B3 VL with N30P, W31Y, E32A
# notes: as for B9
# B14: MB447 (Fab, V domains shown)
# VH: B1 VH
# VL: B3 VL with N30F, E32W
# notes: as for B3
# B15: MB448 (Fab, V domains shown)
# VH: B1 VH
# VL: B3 VL with N30V, E32M
# notes: as for B3
# B16: MB450 (Fab, V domains shown)
# VH: B1 VH
# VL: B3 VL with N30M, E32W
# notes: as for B3
# B17: MB453 (Fab, V domains shown)
# VH: B1 VH
# VL: B3 VL with N30V, W31F, E32W
# notes: as for B3
# B18: MB456 (Fab, V domains shown)
# VH: B1 VH
# VL: B3 VL with N30L, E32H
# notes: as for B3
# B19: MB457 (Fab, V domains shown)
# VH: B1 VH
# VL: B3 VL with N30I, E32S
# notes: as for B7
# B20: MB458 (Fab, V domains shown)
# VH: B1 VH
# VL: B3 VL with N30W, W31Y, E32Q
# notes: as for B3
# B21: MB461 (Fab, V domains shown)
# VH: B1 VH
# VL: B3 VL with N30Y, E32T
# notes: as for B3
# B22: MB483 (Fab, V domains shown)
# VH: B1 VH
# VL: B3 VL with N30F, E32T
# notes: as for B3
# B23: MB486 (Fab, V domains shown)
# VH: B1 VH
# VL: B3 VL with N30W, E32M
# notes: as for B3
# B24: MB491 (Fab, V domains shown)
# VH: B1 VH
# VL: B3 VL with N30F, W31F, E32W
# notes: as for B3
# Target: T1, recombinant human IL-17A (SEQ ID NO: 78)
# Assay: SPR (Biacore), captured antibody, antigen as analyte
Binder,Kd [nM],koff [s⁻¹],kon [M⁻¹ s⁻¹]
B1,0.0176,7.12e-05,4.09e+06

# Target: T2, recombinant human IL-17A (SEQ ID NO: 76)
# Assay: cell-based or functional assay
row,Binder,"IC50, huIL-6 secretion by BJ cells; stimulus rhuIL-17A (0.5 nM) [nM]"
1,B1,0.64
2,B2,0.54

# Target: T3, human IL-17A (construct not stated)
# Assay: ELISA titration of purified Fab on plate-coated huIL-17A, normalized signal; x axis printed as log10 of Fab concentration (M)
row,Binder,EC50 (read off the curve) [nM]
1,B3,~2
2,B4,~0.6
3,B5,~2
4,B6,~3
5,B7,~2
6,B8,~2

# Target: T4, recombinant mouse IL-17A (SEQ ID NO: 83)
# Assay: cell-based or functional assay
row,Binder,"IC50, KC secretion by CMT-93 cells; stimulus mIL-17A (0.15 nM) [nM]"
1,B1,20.9
2,B2,7.8

# Target: T3, human IL-17A (construct not stated)
# Assay: ELISA on coated huIL-17A, crude Fab extract, overnight with 200 nM XAB1 Fab as competitor
row,Binder,Competition ELISA (normalized to XAB1 Fab)
1,B9,36.6 ratio to XAB1 Fab
2,B10,37.3 ratio to XAB1 Fab
3,B11,29.3 ratio to XAB1 Fab
4,B12,39.5 ratio to XAB1 Fab
5,B3,44.6 ratio to XAB1 Fab
6,B13,41.1 ratio to XAB1 Fab
7,B4,54 ratio to XAB1 Fab
8,B5,52.4 ratio to XAB1 Fab
9,B14,57 ratio to XAB1 Fab
10,B15,51.5 ratio to XAB1 Fab
11,B16,53.3 ratio to XAB1 Fab
12,B17,46.4 ratio to XAB1 Fab
13,B18,46.7 ratio to XAB1 Fab
14,B19,41 ratio to XAB1 Fab
15,B20,42.1 ratio to XAB1 Fab
16,B21,62.8 ratio to XAB1 Fab
17,B6,31.6 ratio to XAB1 Fab
18,B7,36.9 ratio to XAB1 Fab
19,B8,60 ratio to XAB1 Fab
20,B22,45.2 ratio to XAB1 Fab
21,B23,64.9 ratio to XAB1 Fab
22,B24,44.2 ratio to XAB1 Fab

# Target: T2, recombinant human IL-17A (SEQ ID NO: 76)
# Assay: cell-based or functional assay
# Remark: another data set of the same source
row,Binder,"IC50, huGROα secretion by BJ cells; stimulus rhuIL-17A (0.5 nM) [nM]"
1,B1,0.4
2,B2,0.46

# Target: T3, human IL-17A (construct not stated)
# Assay: cell-based or functional assay
Binder,"EC50, in vitro neutralization activity, T = 0 weeks [mg/L]","EC50, in vitro neutralization activity, T = 4 weeks at pH 8, 40°C (forced deamidation) [ng/ml]"
B1,0.045,47
B2,0.045,61

# Target: T3, human IL-17A (construct not stated)
# Assay: ELISA on coated huIL-17A, crude Fab extract
row,Binder,Classic ELISA (normalized to XAB1 Fab)
1,B9,2.9 ratio to XAB1 Fab
2,B10,2.3 ratio to XAB1 Fab
3,B11,2.3 ratio to XAB1 Fab
4,B12,2.4 ratio to XAB1 Fab
5,B3,2.7 ratio to XAB1 Fab
6,B13,2.7 ratio to XAB1 Fab
7,B4,2.8 ratio to XAB1 Fab
8,B5,3.2 ratio to XAB1 Fab
9,B14,3 ratio to XAB1 Fab
10,B15,2.9 ratio to XAB1 Fab
11,B16,2.9 ratio to XAB1 Fab
12,B17,2.7 ratio to XAB1 Fab
13,B18,2.4 ratio to XAB1 Fab
14,B19,2.7 ratio to XAB1 Fab
15,B20,2.7 ratio to XAB1 Fab
16,B21,2.9 ratio to XAB1 Fab
17,B6,2.7 ratio to XAB1 Fab
18,B7,2.7 ratio to XAB1 Fab
19,B8,2.8 ratio to XAB1 Fab
20,B22,3.1 ratio to XAB1 Fab
21,B23,1.9 ratio to XAB1 Fab
22,B24,2.1 ratio to XAB1 Fab

# Target: T3, human IL-17A (construct not stated)
# Assay: ELISA on coated huIL-17A, crude Fab extract, wash of at least 3 h
row,Binder,Off-rate ELISA (normalized to XAB1 Fab)
1,B9,34.2 ratio to XAB1 Fab
2,B10,44.2 ratio to XAB1 Fab
3,B11,39.7 ratio to XAB1 Fab
4,B12,44.4 ratio to XAB1 Fab
5,B3,44.7 ratio to XAB1 Fab
6,B13,41.5 ratio to XAB1 Fab
7,B4,52.5 ratio to XAB1 Fab
8,B5,48.9 ratio to XAB1 Fab
9,B14,45.5 ratio to XAB1 Fab
10,B15,40.4 ratio to XAB1 Fab
11,B16,41.5 ratio to XAB1 Fab
12,B17,43.3 ratio to XAB1 Fab
13,B18,45.1 ratio to XAB1 Fab
14,B19,34.7 ratio to XAB1 Fab
15,B20,33 ratio to XAB1 Fab
16,B21,49.8 ratio to XAB1 Fab
17,B6,34.2 ratio to XAB1 Fab
18,B7,34.9 ratio to XAB1 Fab
19,B8,43.9 ratio to XAB1 Fab
20,B22,47.1 ratio to XAB1 Fab
21,B23,58.5 ratio to XAB1 Fab
22,B24,43 ratio to XAB1 Fab
